Test results: publication PMC314469, “Protein Interaction Networks by Proteome Peptide Scanning” (PLoS Biology, 2004)

T1: Boi1 SH3 (BOI1_YEAST), P38041
T1 chain: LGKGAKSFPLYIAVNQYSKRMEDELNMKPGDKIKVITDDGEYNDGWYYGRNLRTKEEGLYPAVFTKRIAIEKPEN

T2: Boi2 SH3 (BOI2_YEAST), P39969
T2 chain: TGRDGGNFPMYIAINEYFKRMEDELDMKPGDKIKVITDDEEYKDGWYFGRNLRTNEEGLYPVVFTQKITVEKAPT

T3: Myo5 SH3 (MYO5_YEAST), Q04439
T3 chain: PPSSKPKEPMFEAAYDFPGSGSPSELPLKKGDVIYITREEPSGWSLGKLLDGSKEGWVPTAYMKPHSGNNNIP

T4: Rvs167 SH3 (RV167_YEAST), P39743
T4 chain: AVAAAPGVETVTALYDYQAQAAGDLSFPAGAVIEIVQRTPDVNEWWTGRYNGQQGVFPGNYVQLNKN

T5: Yfr024 SH3 (LSB3_YEAST), P43603
T5 chain: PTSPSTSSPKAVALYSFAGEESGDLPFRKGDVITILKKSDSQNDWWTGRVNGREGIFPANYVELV

T6: Yhr016c SH3 (YSC84_YEAST), P32793
T6 chain: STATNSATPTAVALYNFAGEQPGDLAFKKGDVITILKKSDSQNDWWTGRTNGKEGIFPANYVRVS


What was measured:
Test in all cases: SPOT array
[1] = molecular target: T1, Boi1 SH3 (BOI1_YEAST), P38041
[2] = molecular target: T2, Boi2 SH3 (BOI2_YEAST), P39969
[3] = molecular target: T3, Myo5 SH3 (MYO5_YEAST), Q04439
[4] = molecular target: T4, Rvs167 SH3 (RV167_YEAST), P39743
[5] = molecular target: Sho1 SH3 (SHO1_YEAST), P40073
[6] = molecular target: T5, Yfr024 SH3 (LSB3_YEAST), P43603
[7] = molecular target: T6, Yhr016c SH3 (YSC84_YEAST), P32793

Chain of Sho1 SH3 (SHO1_YEAST), P40073 (P40073 295-366): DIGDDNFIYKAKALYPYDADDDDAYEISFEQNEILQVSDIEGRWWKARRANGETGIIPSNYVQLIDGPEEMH

Row | normalised SPOT signal, Boehringer light units (BLU); mean over the file's lines of this peptide [1] | normalised SPOT signal, Boehringer light units (BLU); mean over the file's lines of this peptide [2] | normalised SPOT signal, Boehringer light units (BLU); mean over the file's lines of this peptide [3] | normalised SPOT signal, Boehringer light units (BLU); mean over the file's lines of this peptide [4] | normalised SPOT signal, Boehringer light units (BLU); mean over the file's lines of this peptide [5] | normalised SPOT signal, Boehringer light units (BLU); mean over the file's lines of this peptide [6] | normalised SPOT signal, Boehringer light units (BLU); mean over the file's lines of this peptide [7] | Binder
1 | 15.3 | -0 | 102 | 12.9 | 13.9 | 34.4 | 9.5 | AVLIRADPLNPKVV [YCR028C 355-368]
2 | 1950 | 17.7 | 241 | 70.8 | 49.7 | 512 | 63.5 | APVVKSEPSLPRMR [YJL083W 57-70]
3 | 193 | 12.6 | 139 | 63.8 | 35.4 | 26.8 | 15.2 | ALSTKGYPHEPPLL [YGR172C 61-74]
4 | 644 | 17 | 76.2 | 28.9 | 51.1 | 27.6 | 13.3 | ATVVKNSPGDPELF [YNL187W 329-342]
5 | 41.1 | 14.1 | 78.4 | 39.6 | 0 | 17.2 | 19.6 | AVGGKWEPGNPIAI [YHR113W 80-93]
6 | 82.6 | 0 | 426 | 60.5 | 47.7 | 517 | 45.4 | AMESRVAPEIPGLI [YGL130W 4-17]
7 | 349 | 1.5 | 953 | 80.6 | 65.5 | 214 | 16.3 | ASKHKMFPFNPAKI [YLR115W 531-544]
8 | 4780 | 253 | 914 | 1850 | 34.4 | 7070 | 972 | ALLRRTIPKRPFYH [YDL142C 12-25]
9 | 263 | 59.9 | 274 | 49.7 | 30.2 | 204 | 28.1 | ATKRKTIPVYPPVQ [YCR046C 20-33]
10 | 1480 | 14.1 | 238 | 73.8 | 65 | 438 | 41.3 | AVQLKRQPAQPRES [YBR191W 125-138]
11 | 103 | 18.8 | 154 | 50.7 | 115 | 405 | 75.9 | ALWAKFFPEKPLNI [YGR024C 111-124]
12 | 76.3 | 3.5 | 117 | 15.9 | 37.7 | 5.8 | 0.6 | APPPKEEPAAPTST [YGR162W 923-936]
13 | 108 | 58.5 | 137 | 47.7 | 19100 | 39.5 | 67.6 | ATEAKSLPKIPSIP [YPL176C 343-356]
14 | 127 | 4 | 136 | 80.9 | 52.8 | 3620 | 92.2 | ATGKRKLPGWPSAD [YIL165C 34-47]
15 | 713 | 16.2 | 401 | 76.9 | 3780 | 29.1 | 3.4 | AQKLKLLPEEPFQR [YDL001W 74-87]
16 | 1950 | 21.6 | 169 | 48.5 | 19.5 | 816 | 304 | ASFRKTKPPPPLDF [YAL017W 81-94]
